PMC10397247

Experiments:
[1] = target: T1, 4H2622-AA; assay: two-hybrid library CCmax;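 further: natural log of median RNA to DNA barcode read ratio; higher means stronger binding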
T1 chain: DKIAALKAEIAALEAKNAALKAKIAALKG

[2] = target: T2, 4H2705-AA; assay: two-hybrid library CCmax; conditions: mean of both orientations;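 further: natural log of median RNA to DNA barcode read ratio; higher means stronger binding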
T2 chain: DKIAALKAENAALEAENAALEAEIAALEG

[3] = target: T3, 4H2736-AA; assay: two-hybrid library CCmax; conditions: mean of both orientations;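 further: natural log of median RNA to DNA barcode read ratio; higher means stronger binding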
T3 chain: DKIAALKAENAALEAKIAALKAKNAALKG

[4] = target: T4, 4H2888-AA; assay: two-hybrid library CCmax; conditions: mean of both orientations;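 further: natural log of median RNA to DNA barcode read ratio; higher means stronger binding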
T4 chain: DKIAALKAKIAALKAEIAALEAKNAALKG

[5] = target: T5, 4H3049-AA; assay: two-hybrid library CCmax; conditions: mean of both orientations
T5 chain: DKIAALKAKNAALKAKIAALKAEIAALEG

[6] = target: T6, 4H337-AA; assay: two-hybrid library CCmax; conditions: mean of both orientations
T6 chain: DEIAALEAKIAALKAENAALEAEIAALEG

[7] = target: T7, 4H3587-AA; assay: two-hybrid library CCmax; conditions: mean of both orientations
T7 chain: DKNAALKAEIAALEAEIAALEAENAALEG

[8] = target: T8, 4H3590-AA; assay: two-hybrid library CCmax; conditions: mean of both orientations
T8 chain: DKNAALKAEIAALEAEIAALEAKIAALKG

[9] = target: T9, 4H3625-AA; assay: two-hybrid library CCmax; conditions: mean of both orientations
T9 chain: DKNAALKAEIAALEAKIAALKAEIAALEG

[10] = target: T10, 4H384-AA; assay: two-hybrid library CCmax; conditions: mean of both orientations
T10 chain: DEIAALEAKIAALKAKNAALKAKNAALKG

[11] = target: T11, 4H3905-AA; assay: two-hybrid library CCmax; conditions: mean of both orientations
T11 chain: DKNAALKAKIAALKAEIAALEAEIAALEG

[12] = target: T12, 4H4038-AA; assay: two-hybrid library CCmax; conditions: mean of both orientations
T12 chain: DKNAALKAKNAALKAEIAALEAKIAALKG

[13] = target: T13, 4H43-AA; assay: two-hybrid library CCmax; conditions: mean of both orientations
T13 chain: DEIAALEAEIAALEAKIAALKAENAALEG

[14] = target: T14, 4H451-AA; assay: two-hybrid library CCmax; conditions: mean of both orientations
T14 chain: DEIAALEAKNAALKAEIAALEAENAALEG

[15] = target: T15, 4H510-AA; assay: two-hybrid library CCmax; conditions: mean of both orientations
T15 chain: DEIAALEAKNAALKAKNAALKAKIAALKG

[16] = target: T16, 4H_APH; assay: two-hybrid library CCmax; conditions: mean of both orientations
T16 chain: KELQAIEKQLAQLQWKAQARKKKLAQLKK

[17] = target: T17, 4H_BCR; assay: two-hybrid library CCmax; conditions: mean of both orientations
T17 chain: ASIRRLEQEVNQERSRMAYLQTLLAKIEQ

[18] = target: 4H_GCN4; assay: two-hybrid library CCmax; conditions: mean of both orientations
[19] = target: GCN2_T; assay: two-hybrid library CCmax; conditions: mean of both orientations
[20] = target: T18, O11-AA; assay: two-hybrid library CCmax; conditions: mean of both orientations
T18 chain: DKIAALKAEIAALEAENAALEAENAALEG

[21] = target: T19, O13-AA; assay: two-hybrid library CCmax; conditions: mean of both orientations
T19 chain: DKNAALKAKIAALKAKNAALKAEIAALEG

[22] = target: T20, O14-AA; assay: two-hybrid library CCmax; conditions: mean of both orientations
T20 chain: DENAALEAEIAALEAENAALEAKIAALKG

[23] = target: T21, 4H2576-bN; assay: two-hybrid library CCNG1
T21 chain: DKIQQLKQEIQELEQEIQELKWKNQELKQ

[24] = target: T22, 4H2610-bN; assay: two-hybrid library CCNG1
T22 chain: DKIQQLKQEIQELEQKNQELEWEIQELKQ

[25] = target: T23, 4H2618-bN; assay: two-hybrid library CCNG1
T23 chain: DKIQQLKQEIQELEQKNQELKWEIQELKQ

[26] = target: T24, 4H2667-bN; assay: two-hybrid library CCNG1
T24 chain: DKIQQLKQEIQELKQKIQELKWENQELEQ

[27] = target: T25, 4H2697-bN; assay: two-hybrid library CCNG1
T25 chain: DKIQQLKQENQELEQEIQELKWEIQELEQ

[28] = target: T26, 4H2729-bN; assay: two-hybrid library CCNG1
T26 chain: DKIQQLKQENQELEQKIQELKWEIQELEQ

[29] = target: T27, 4H3112-bN; assay: two-hybrid library CCNG1
T27 chain: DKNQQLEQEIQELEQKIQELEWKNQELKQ

[30] = target: T28, 4H3185-bN; assay: two-hybrid library CCNG1
T28 chain: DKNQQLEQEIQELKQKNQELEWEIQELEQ

[31] = target: T29, 4H3189-bN; assay: two-hybrid library CCNG1
T29 chain: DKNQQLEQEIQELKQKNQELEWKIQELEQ

[32] = target: T30, 4H331-bN; assay: two-hybrid library CCNG1
T30 chain: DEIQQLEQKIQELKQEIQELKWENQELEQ

[33] = target: T31, 4H3354-bN; assay: two-hybrid library CCNG1
T31 chain: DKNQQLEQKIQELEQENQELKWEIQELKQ

[34] = target: T32, 4H338-bN; assay: two-hybrid library CCNG1
T32 chain: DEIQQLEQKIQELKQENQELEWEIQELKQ

[35] = target: T33, 4H3427-bN; assay: two-hybrid library CCNG1
T33 chain: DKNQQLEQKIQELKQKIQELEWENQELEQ

[36] = target: T34, 4H3606-bN; assay: two-hybrid library CCNG1
T34 chain: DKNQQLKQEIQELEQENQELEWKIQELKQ

[37] = target: T35, 4H370-bN; assay: two-hybrid library CCNG1
T35 chain: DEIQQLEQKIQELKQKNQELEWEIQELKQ

[38] = target: T36, 4H3782-bN; assay: two-hybrid library CCNG1
T36 chain: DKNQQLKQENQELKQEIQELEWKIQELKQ

[39] = target: T37, 4H3843-bN; assay: two-hybrid library CCNG1
T37 chain: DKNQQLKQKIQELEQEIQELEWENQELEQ

[40] = target: T38, 4H3855-bN; assay: two-hybrid library CCNG1
T38 chain: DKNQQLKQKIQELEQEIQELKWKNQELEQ

[41] = target: T39, 4H4001-bN; assay: two-hybrid library CCNG1
T39 chain: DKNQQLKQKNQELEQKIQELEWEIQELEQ

[42] = target: T40, 4H454-bN; assay: two-hybrid library CCNG1
T40 chain: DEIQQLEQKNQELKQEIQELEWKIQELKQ

[43] = target: T41, 4H462-bN; assay: two-hybrid library CCNG1
T41 chain: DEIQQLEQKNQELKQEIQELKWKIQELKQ

[44] = target: T42, 4H568-bN; assay: two-hybrid library CCNG1
T42 chain: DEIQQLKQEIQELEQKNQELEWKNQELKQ

[45] = target: T43, 4H607-bN; assay: two-hybrid library CCNG1
T43 chain: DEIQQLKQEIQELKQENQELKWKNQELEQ

[46] = target: T44, 4H687-bN; assay: two-hybrid library CCNG1
T44 chain: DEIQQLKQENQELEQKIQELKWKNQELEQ

[47] = target: T45, 4H717-bN; assay: two-hybrid library CCNG1
T45 chain: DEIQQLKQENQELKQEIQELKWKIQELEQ

[48] = target: T46, 4H72-bN; assay: two-hybrid library CCNG1
T46 chain: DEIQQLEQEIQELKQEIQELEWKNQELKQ

[49] = target: T47, 4H754-bN; assay: two-hybrid library CCNG1
T47 chain: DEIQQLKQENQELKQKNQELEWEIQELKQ

[50] = target: T48, 4H797-bN; assay: two-hybrid library CCNG1
T48 chain: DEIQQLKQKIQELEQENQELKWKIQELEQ

[51] = target: T49, 4H883-bN; assay: two-hybrid library CCNG1
T49 chain: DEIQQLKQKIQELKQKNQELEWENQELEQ

[52] = target: T50, 4H908-bN; assay: two-hybrid library CCNG1
T50 chain: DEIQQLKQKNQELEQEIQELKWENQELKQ

[53] = target: T51, 4H918-bN; assay: two-hybrid library CCNG1
T51 chain: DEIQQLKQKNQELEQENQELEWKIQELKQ

[54] = target: T52, 4H949-bN; assay: two-hybrid library CCNG1
T52 chain: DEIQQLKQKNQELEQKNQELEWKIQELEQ

[55] = target: T53, 4H953-bN; assay: two-hybrid library CCNG1
T53 chain: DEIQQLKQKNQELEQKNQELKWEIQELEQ

[56] = target: T54, 4H967-bN; assay: two-hybrid library CCNG1
T54 chain: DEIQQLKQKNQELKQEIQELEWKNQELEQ

Chain of 4H_GCN4 (chain, as listed by the source): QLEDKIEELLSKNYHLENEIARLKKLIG

**Q.** For DKIAALKAEIAALEAKNAALKAKIAALKG [4H2622-AA], which interaction score [1] is on record?
**A.** The interaction score was 1.07.

**Q.** What about the interaction score [2] of the same binder?
**A.** The interaction score was 0.956.

**Q.** What about the interaction score [3] of the same binder?
**A.** Its interaction score is -0.125.

**Q.** What about the interaction score [4] of the same binder?
**A.** The interaction score was 0.116.

**Q.** What about the interaction score [5] of the same binder?
**A.** The interaction score was 0.212.

**Q.** And the interaction score [6]?
**A.** The interaction score was 2.35.

**Q.** What about the interaction score [7] of the same binder?
**A.** The interaction score was 0.659.

**Q.** What about the interaction score [8] of the same binder?
**A.** The interaction score was 0.684.

**Q.** And the interaction score [9]?
**A.** Its interaction score is 1.6.

**Q.** And the interaction score [10]?
**A.** The interaction score was -1.12.

**Q.** And the interaction score [11]?
**A.** Its interaction score is 1.43.

**Q.** And the interaction score [12]?
**A.** The interaction score was -1.2.

**Q.** And the interaction score [13]?
**A.** Its interaction score is 1.57.

**Q.** And the interaction score [14]?
**A.** The interaction score was -0.0617.

**Q.** What about the interaction score [15] of the same binder?
**A.** The interaction score was -0.508.

**Q.** And the interaction score [16]?
**A.** The interaction score was -1.87.

**Q.** And the interaction score [17]?
**A.** The interaction score was -0.274.

**Q.** What about the interaction score [18] of the same binder?
**A.** The interaction score was 0.309.

**Q.** What about the interaction score [19] of the same binder?
**A.** Its interaction score is 0.0302.

**Q.** And the interaction score [20]?
**A.** The interaction score was 1.62.

**Q.** And the interaction score [21]?
**A.** Its interaction score is 0.551.

**Q.** What about the interaction score [22] of the same binder?
**A.** The interaction score was 2.2.

**Q.** DKIQQLKQEIQELEQEIQELKWKNQELKQ [4H2576-bN] was tested. Which interaction score [23] did it give?
**A.** The interaction score was 1.12.

**Q.** What about the interaction score [24] of the same binder?
**A.** The interaction score was -0.395.

**Q.** And the interaction score [25]?
**A.** The interaction score was 0.876.

**Q.** What about the interaction score [26] of the same binder?
**A.** Its interaction score is 1.21.

**Q.** And the interaction score [27]?
**A.** The interaction score was -0.235.

**Q.** What about the interaction score [28] of the same binder?
**A.** The interaction score was 1.74.

**Q.** And the interaction score [29]?
**A.** The interaction score was -0.405.

**Q.** And the interaction score [30]?
**A.** Its interaction score is 0.148.

**Q.** And the interaction score [31]?
**A.** Its interaction score is 0.118.

**Q.** What about the interaction score [32] of the same binder?
**A.** Its interaction score is 1.55.

**Q.** What about the interaction score [33] of the same binder?
**A.** The interaction score was -1.26.

**Q.** And the interaction score [34]?
**A.** Its interaction score is 0.787.

**Q.** And the interaction score [35]?
**A.** Its interaction score is -2.5.

**Q.** What about the interaction score [36] of the same binder?
**A.** Its interaction score is -0.101.

**Q.** And the interaction score [37]?
**A.** The interaction score was 0.65.

**Q.** And the interaction score [38]?
**A.** Its interaction score is -0.233.

**Q.** What about the interaction score [39] of the same binder?
**A.** Its interaction score is -0.264.

**Q.** And the interaction score [40]?
**A.** The interaction score was 1.04.

**Q.** And the interaction score [41]?
**A.** The interaction score was 0.0889.

**Q.** What about the interaction score [42] of the same binder?
**A.** The interaction score was -0.887.

**Q.** And the interaction score [43]?
**A.** The interaction score was 0.0924.

**Q.** What about the interaction score [44] of the same binder?
**A.** The interaction score was -0.0699.

**Q.** What about the interaction score [45] of the same binder?
**A.** The interaction score was -0.239.

**Q.** And the interaction score [46]?
**A.** Its interaction score is -0.515.

**Q.** And the interaction score [47]?
**A.** The interaction score was -0.909.

**Q.** And the interaction score [48]?
**A.** The interaction score was 1.58.

**Q.** What about the interaction score [49] of the same binder?
**A.** The interaction score was 0.456.

**Q.** And the interaction score [50]?
**A.** The interaction score was -2.07.

**Q.** And the interaction score [51]?
**A.** Its interaction score is 1.47.

**Q.** What about the interaction score [52] of the same binder?
**A.** Its interaction score is -0.577.

**Q.** What about the interaction score [53] of the same binder?
**A.** The interaction score was -1.21.

**Q.** And the interaction score [54]?
**A.** Its interaction score is 0.288.

**Q.** And the interaction score [55]?
**A.** Its interaction score is -1.09.

**Q.** What about the interaction score [56] of the same binder?
**A.** The interaction score was -1.08.
